Substitutions are numbered along the chain they refer to.
B1: RhoA-WT (dsDNA)
DNA 1: TCGTTGCAGTTCATTGATTGACATTTTTATTATGCATATTCGCTGGT
DNA 2: ACCAGCGAATATGCATAATAAAAATGTCAATCAATGAACTGCAACGA
B2: RhoA-PS (strong Pax2 site) (dsDNA)
DNA 1: B1 DNA 1 with T5C, G6A, A8G
DNA 2: B1 DNA 2 with T40C, C42T, A43G
B3: RhoA-PSSS (strong Pax2 and Sens sites) (dsDNA)
DNA 1: B1 DNA 1 with T5C, G6A, A8G, T11G, T14C
DNA 2: B1 DNA 2 with A34G, A37C, T40C, C42T, A43G
B4: RhoA-SS (strong Sens site) (dsDNA)
DNA 1: B1 DNA 1 with T11G, T14C
DNA 2: B1 DNA 2 with A34G, A37C
B5: RhoA-PM (Pax2 site mutant) (dsDNA)
DNA 1: B1 DNA 1 with T4G, T5G, G6T
DNA 2: B1 DNA 2 with C42A, A43C, A44C
B6: RhoA-SM (Sens site mutant) (dsDNA)
DNA 1: B1 DNA 1 with C12G, A13G
DNA 2: B1 DNA 2 with T35C, G36C
B7: RhoA-SM/SM (dsDNA)
DNA 1: TCGTTGCAGTTGGTTGATTGACATTTTTATTATGCATGGTTGATTGA
DNA 2: TCAATCAACCATGCATAATAAAAATGTCAATCAACCAACTGCAACGA
B8: RhoA-SM/SS (dsDNA)
DNA 1: B7 DNA 1 with T37G, G38C, G39A, T40C
DNA 2: B7 DNA 2 with A8G, C9T, C10G, A11C
B9: RhoA-SM/SWT (dsDNA)
DNA 1: B7 DNA 1 with G38C, G39A
DNA 2: B7 DNA 2 with C9T, C10G

Target: Pax2 (UniProt Q8IM96 175-301)
Experiment: EMSA; Native PAGE EMSA, probe 0.36 uM, LI-COR imaging; protein amounts in ng; buffer, salt, pH and temperature not given (cited to refs 43, 64)
Conditions: protein: recombinant; tags: His

Pax2, sequence (Q8IM96 entry or part of it): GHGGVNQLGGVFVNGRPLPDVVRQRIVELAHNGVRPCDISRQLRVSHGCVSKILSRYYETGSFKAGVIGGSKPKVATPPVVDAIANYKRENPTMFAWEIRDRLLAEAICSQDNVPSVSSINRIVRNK

Binder | binding result
B1 | binds
B2 | binds
B3 | binds

Target: Senseless (Sens) (UniProt Q9N658 413-520)
Experiment: as above
Conditions: protein: recombinant; tags: His

Senseless (Sens), sequence (Q9N658 413-520): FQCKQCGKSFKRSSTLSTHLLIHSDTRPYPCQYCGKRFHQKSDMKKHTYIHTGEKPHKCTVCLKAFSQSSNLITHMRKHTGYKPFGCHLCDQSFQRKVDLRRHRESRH

Binder | binding result
B1 | binds
B4 | binds
B5 | binds
B6 | no binding
B2 | binds
B3 | binds
B7 | no binding
B8 | binds
B9 | binds
